B1: PTPRD (parent)
chain: ITWFKDFLPVDTSNNNGRIKQLRS

Variants of: B1
Assay: protein stability index of a GFP-peptide fusion (GPS, HEK-293T) (PSI 1-6); higher = more stable
Details: c terminus: a fixed tail appended
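Note: lentivirally expressed fusions sorted by FACS into six bins by GFP to DsRed ratio, PSI derived from sequencing read proportions per bin multiplied by bin number.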

Protein stability index: each site, then its substitutions
L8: V 1.77 | S 2.04 | W 1.76 | N 2.1 | E 1.85 | R 2.41 | P 1.96 | D 2.31 | T 2.23
I1: W 2.17 | F 2.03 | N 3.69 | L 2.33 | V 2.15
I19: Y 2.13 | R 1.84 | N 1.95 | C 1.69 | G 2.24 | P 1.69
P9: M 2.31 | I 2.02 | E 2 | V 2.04 | K 1.96 | W 1.75
R23: E 2.77 | S 1.83 | D 2.39 | G 1.74 | V 1.91 | Q 2.09 | P 1.8 | L 1.81 | C 1.43
K5: C 2.25 | M 2.43 | S 2.37 | Q 2.07 | G 2.17
G17: N 1.86 | Y 1.78 | Q 2.15
T12: G 1.83 | F 1.65 | V 2.42 | C 1.55 | Y 1.55 | L 1.94 | N 1.51 | Q 2.25 | P 2.03 | S 1.94
W3: P 3.75 | Y 2.95 | E 4.07 | S 3.62 | V 2.46 | F 2.25 | A 3.76 | K 2.85 | D 3.43 | N 3.23
D6: K 1.85 | T 1.6 | C 2.26 | R 2.37 | P 1.85 | G 2.27 | Q 1.4
F7: L 2.41 | I 2.26 | M 2.46 | Q 2.05 | Y 1.99 | C 2.31 | V 1.85
L22: Q 1.62 | G 1.84 | M 1.88 | Y 2.73 | E 2.07 | C 1.61 | V 1.62 | T 2.12
D11: N 2.01 | L 1.62 | C 2.23 | M 2.16 | W 2.33 | Y 1.67 | T 1.61 | E 1.99
K20: Q 1.94 | S 2.72 | A 1.66 | N 2.08 | Y 2.19
F4: W 2.02 | K 2.37 | M 1.59 | Y 1.95 | P 2.74 | G 3.35
S24: A 1.96 | D 1.9 | P 1.34 | L 1.41 | V 1.52 | F 1.69 | H 1.74 | K 2.15
N14: P 2.37 | K 2.04 | I 1.85 | M 1.79 | E 2.05 | S 2.94 | G 1.92 | H 1.37
N15: K 2.54 | E 1.69 | S 1.67 | A 1.61
V10: G 2.28 | L 1.95 | E 2.23 | A 2.03 | W 2.62 | T 1.76 | F 2.65 | C 2.05
R18: P 2.08 | T 1.93 | A 1.8 | F 2.04 | W 1.62 | Y 2.1 | M 1.63 | C 2.83
T2: R 1.59 | I 2.18 | S 2.12 | N 2 | D 1.53 | H 2.15
S13: L 1.88 | W 1.65 | D 2.22 | K 1.77 | A 1.62 | V 2.38 | G 1.77 | Q 1.85
Q21: F 1.75 | G 2.28 | C 1.52 | Y 1.93 | P 2.01 | A 1.57
N16: A 1.78 | D 1.88 | Q 2.26 | I 2.32 | E 2.02 | Y 1.71 | W 2.17

— the supplement of paper PMC10567573
